Among the data in patent US20160137730A1 (Novartis, published 2016) are Kd values, retold here.

Residue numbers refer to the chain shown, from its start.

The chains are these.
T1: Rat P-cadherin (CDH3) D1-5 (rat, UniProt P10287 100-647 (mouse entry))
T1 construct: Rat CDH3 residues 100-647 with a C-terminal 6xHis tag (NM_053938.1, NP_446390); it may include leader and vector residues; also called rat pCAD-6xHis
T1 chain: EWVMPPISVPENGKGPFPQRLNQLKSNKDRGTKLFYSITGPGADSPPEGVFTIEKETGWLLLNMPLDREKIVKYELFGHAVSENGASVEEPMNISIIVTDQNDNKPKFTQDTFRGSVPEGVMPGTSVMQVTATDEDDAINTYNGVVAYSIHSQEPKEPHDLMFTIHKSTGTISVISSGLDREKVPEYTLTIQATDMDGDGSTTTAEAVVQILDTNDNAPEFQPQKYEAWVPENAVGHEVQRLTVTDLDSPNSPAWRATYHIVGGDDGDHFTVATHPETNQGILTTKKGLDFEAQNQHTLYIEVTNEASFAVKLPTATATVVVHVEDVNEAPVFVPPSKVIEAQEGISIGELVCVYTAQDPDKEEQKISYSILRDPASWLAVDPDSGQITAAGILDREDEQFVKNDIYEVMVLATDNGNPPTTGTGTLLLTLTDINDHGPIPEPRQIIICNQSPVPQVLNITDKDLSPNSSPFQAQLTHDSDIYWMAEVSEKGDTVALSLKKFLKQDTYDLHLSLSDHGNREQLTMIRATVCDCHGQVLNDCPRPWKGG

B1: NEG0064 (antibody, human IgG1, kappa, V domains shown)
VH: QIQLVQSGAEVKKPGSSVKVSCKVSGYTFTDHTLHWMRQAPGQGLEWMGYIYPRSGSTKYNENFRGRVTITADTSSSTAYMELSSLRSEDTAVYYCVRRLLFLPLDYWGQGTLVTVSS
VL: EIVMTQSPATLSLSPGERATLSCRSSQSLLSSGNQKSYLTWYQQKPGQAPRLLIYWASTRESGIPARFSGSGSGTDFTLTISSLQPEDFAVYYCQNDYSYPFTFGQGTKLEIKR
notes: Humanized anti-P-cadherin antibody derived from a murine hybridoma; also called NEG0064 Naked
B2: NEG0016 (antibody, human IgG1, kappa, V domains shown)
VH: B1 VH with V97A
VL: B1 VL
notes: Humanized anti-P-cadherin antibody derived from a murine hybridoma; also called NEG0016 Naked
B3: NEG0067 (antibody, human IgG1, kappa, V domains shown)
VH: B1 VH with R65K
VL: B1 VL
notes: Humanized anti-P-cadherin antibody derived from a murine hybridoma; also called NEG0067 Naked
B4: NEG0012 (antibody, human IgG1, kappa, V domains shown)
VH: EVQLVQSGAEVKKPGESLKISCKVSGYTFTDHTIHWMRQMPGKGLEWMGYIYPRSGSINYNEKFKGQVTISADKSSSTAYLQWSSLKASDTAMYYCARRNLFLPMEYWGQGTLVTVSS
VL: DIVMTQTPLSLPVTPGEPASISCRSSQSLLSSGDQKNYLTWYLQKPGQSPQLLIYWASTRESGVPDRFSGSGSGTDFTLKISRVEAEDVGVYYCQNDYRYPLTFGQGTKLEIKR
notes: Humanized anti-P-cadherin antibody derived from a murine hybridoma; also called NEG0012 Naked
B5: NEG0013 (antibody, human IgG1, kappa, V domains shown)
VH: B4 VH
VL: B4 VL with D34N, R99S
notes: Humanized anti-P-cadherin antibody derived from a murine hybridoma; also called NEG0013 Naked
B6: NEG0064-MCC-DM1 (antibody, human IgG1, kappa, V domains shown)
VH: B1 VH
VL: B1 VL
modifications: DM1 (maytansinoid) attached through the MCC linker to primary amines of the antibody; sites not given
notes: Antibody drug conjugate in Ab-MCC-DM1 format; also called NEG0064 ADC
B7: NEG0016-MCC-DM1 (antibody, human IgG1, kappa, V domains shown)
VH: B1 VH with V97A
VL: B1 VL
modifications: DM1 (maytansinoid) attached through the MCC linker to primary amines of the antibody; sites not given
notes: Antibody drug conjugate in Ab-MCC-DM1 format; also called NEG0016 ADC
B8: NEG0067-MCC-DM1 (antibody, human IgG1, kappa, V domains shown)
VH: B1 VH with R65K
VL: B1 VL
modifications: DM1 (maytansinoid) attached through the MCC linker to primary amines of the antibody; sites not given
notes: Antibody drug conjugate in Ab-MCC-DM1 format; also called NEG0067 ADC
B9: NEG0012-MCC-DM1 (antibody, human IgG1, kappa, V domains shown)
VH: B4 VH
VL: B4 VL
modifications: DM1 (maytansinoid) attached through the MCC linker to primary amines of the antibody; sites not given
notes: Antibody drug conjugate in Ab-MCC-DM1 format; also called NEG0012 ADC
B10: NEG0013-MCC-DM1 (antibody, human IgG1, kappa, V domains shown)
VH: B4 VH
VL: B4 VL with D34N, R99S
modifications: DM1 (maytansinoid) attached through the MCC linker to primary amines of the antibody; sites not given
notes: Antibody drug conjugate in Ab-MCC-DM1 format; also called NEG0013 ADC

T2 sequence (P22223 108-652 limits assumed): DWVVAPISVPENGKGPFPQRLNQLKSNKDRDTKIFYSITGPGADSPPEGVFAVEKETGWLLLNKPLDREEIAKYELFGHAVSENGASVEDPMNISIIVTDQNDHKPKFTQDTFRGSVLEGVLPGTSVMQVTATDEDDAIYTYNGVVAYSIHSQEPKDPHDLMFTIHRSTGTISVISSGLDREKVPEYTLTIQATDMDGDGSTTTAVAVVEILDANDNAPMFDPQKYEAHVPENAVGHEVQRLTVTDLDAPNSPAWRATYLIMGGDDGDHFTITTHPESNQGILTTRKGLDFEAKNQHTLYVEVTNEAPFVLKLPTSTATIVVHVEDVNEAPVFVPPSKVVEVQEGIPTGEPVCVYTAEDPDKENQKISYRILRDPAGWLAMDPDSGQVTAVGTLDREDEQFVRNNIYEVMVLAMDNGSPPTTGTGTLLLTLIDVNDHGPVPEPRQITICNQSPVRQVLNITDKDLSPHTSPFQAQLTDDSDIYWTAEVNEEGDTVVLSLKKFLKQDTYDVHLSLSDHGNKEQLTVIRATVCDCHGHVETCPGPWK

The first assay addresses T2, Human P-cadherin (CDH3) D1-5 (human, UniProt P22223 108-652).
T2 construct: Human CDH3 residues 108-652 with a C-terminal 6xHis tag, made in Tn5 insect cells with baculovirus (NM_001793.4, NP_001784); It may include a secretion signal and vector residues, as the printed cyno constructs do; no cleavage site is stated; also called human pCAD-6xHis; human P-cadherin ECD
Kind of assay: SPR Biacore, Ab captured via Protein A, ECD-6xHis analyte, 25C, 1:1 fit. From the text: (§1) Briefly, HBS-P⁺ (0.01 M HEPES, pH 7.4, 0.15 M NaCl, 0.05% Surfactant P20) supplemented with 2% Odyssey® blocking buffer (Li-Cor Biosciences, Lincoln, Nebr.) was used as the running buffer for all the experiments on the Biacore® T100 instrument. HBS-P (0.01 M HEPES, pH 7.4, 0.15 M NaCl, 0.005% Surfactant P20) supplemented with 2% Odyssey® blocking buffer was used as the running buffer for all the experiments on the Biacore® 2000 instrument. The immobilization level and analyte interactions were measured by response unit (RU).
(§2) For kinetic measurements, experiments were performed in which the antibodies were captured to the sensor chip surface via the immobilized Protein A and the ability of the P-cadherin proteins to bind in free solution was determined. Briefly, 28 μg/ml of Protein A at pH 4.5 was immobilized on a CM5 sensor chip through amine coupling at flow rate of 10 μl/minute on two flow cells to reach 2300-3300 RUs. 0.01-0.25 μg/ml of test antibodies was then injected at 5 μl/min for 3 minute. […] Subsequently, 6.25-100 nM of P-cadherin ECD was diluted in a 2-fold series and injected at a flow rate of 40 μl/min for 2-4 min over both reference and test flow cells. Table 11 of tested ECDs is listed below. Dissociation of the binding was followed for 5 min. After each injection cycle, the chip surface was regenerated with PBS/6 M Guanidine HCl, pH 7.4 at 100 μl/min for 45 seconds.
As usually defined, the Kd is a measure of binding affinity in units of concentration. Read a low Kd as higher affinity. Consider B1, for which the affinity, expressed as Kd, was 3.66 nM.
The same measure, in the same setting: as for B2, the figure is 60 nM; as for B3, 3.21 nM.
Still for that read-out and setting: as for B4, the figure is 44.8 nM; as for B5, 37.3 nM.

For the next assay, the target named is T1, Rat P-cadherin (CDH3) D1-5. The assay is described as above.
Excerpt: as §1, §2
In the case of B1, the equilibrium dissociation constant (Kd) was found to be 8.99 nM.
Same read-out and setting: as for B2, the figure is 60.1 nM.
On to B3, for which binding was characterised by a dissociation constant (Kd) of 10.3 nM.
Same read-out and setting: as for B5, the figure is 37 nM.

The target in the next assay is T2, Human P-cadherin (CDH3) D1-5. Kind of assay: SPR Biacore, ADC captured via Protein A, ECD-6xHis analyte, 25C, 1:1 fit.
Excerpt: as §1, §2
Molecule B6 gave a Kd of 4.4 nM.
B7 returned a Kd of 54 nM.
For B8, the affinity, expressed as Kd, was 6 nM.
The same measure, in the same setting: under B9 stands 31.3 nM; under B10, 36 nM.

For the next assay, the target named is T1, Rat P-cadherin (CDH3) D1-5. The description is as above.
Excerpt: as §1, §2
B6 displayed a Kd of 13.3 nM.
